{
  "source": "paper PMC8151509",
  "about": "(International Journal of Molecular Sciences, 2021)",
  "binders": {"B1": {"name": "LAIR-1 Ig-like domain, wild type (domain or fragment, human, UniProt Q6GTX8 22-122, looked up)", "chain": "QEEDLPRPSISAEPGTVIPLGSHVTFVCRGPVGVQTFRLERDSRSTYNDTEDVSQASPSESEARFRIDSVREGNAGLYRCIYYKPPKWSEQSDYLELLVKE", "notes": "Leukocyte associated immunoglobulin-like receptor 1 (LAIR-1; CD305), C2-type Ig-like domain, residues 22 to 122; pET28a construct; intact disulfide bond by ESI-MS; also called LAIR-1 WT; soluble LAIR-1 Ig-like domain"}, "B2": {"name": "LAIR-1 Ig-like domain E72K (domain or fragment, human, UniProt Q6GTX8 22-122, looked up)", "chain": "B1 chain with E51K", "notes": "LAIR-1 (CD305), C2-type Ig-like domain, residues 22 to 122"}, "B3": {"name": "LAIR-1 Ig-like domain E111K (domain or fragment, human, UniProt Q6GTX8 22-122, looked up)", "chain": "B1 chain with E90K", "notes": "as for B2"}, "B4": {"name": "LAIR-1 Ig-like domain I102L (domain or fragment, human, UniProt Q6GTX8 22-122, looked up)", "chain": "B1 chain with I81L", "notes": "as for B2"}, "B5": {"name": "LAIR-1 Ig-like domain P107R (domain or fragment, human, UniProt Q6GTX8 22-122, looked up)", "chain": "B1 chain with P86R", "notes": "as for B2"}, "B6": {"name": "recombinant C1r2s2 tetramer (C1s, C1rS637A) (complex)", "chain 1": "SIPIPQKLFGEVTSPLFPKPYPNNFETTTVITVPTGYRVKLVFQQFDLEPSEGCFYDYVKISADKKSLGRFCGQLGSPLGNPPGKKEFMSQGNKMLLTFHTDFSNEENGTIMFYKGFLAYYQAVDLDECASRSKSGEEDPQPQCQHLCHNYVGGYFCSCRPGYELQEDTHSCQAECSSELYTEASGYISSLEYPRSYPPDLRCNYSIRVERGLTLHLKFLEPFDIDDHQQVHCPYDQLQIYANGKNIGEFCGKQRPPDLDTSSNAVDLLFFTDESGDSRGWKLRYTTEIIKCPQPKTLDEFTIIQNLQPQYQFRDYFIATCKQGYQLIEGNQVLHSFTAVCQDDGTWHRAMPRCKIKDCGQPRNLPNGDFRYTTTMGVNTYKARIQYYCHEPYYKMQTRAGSRESEQGVYTCTAQGIWKNEQKGEKIPRCLPVCGKPVNPVEQRQRIIGGQKAKMGNFPWQVFTNIHGRGGGALLGDRWILTAAHTLYPKEHEAQSNASLDVFLGHTNVEELMKLGNHPIRRVSVHPDYRQDESYNFEGDIALLELENSVTLGPNLLPICLPDNDTFYDLGLMGYVSGFGVMEEKIAHDLRFVRLPVANPQACENWLRGKNRMDVFSQNMFCAGHPSLKQDACQGDAGGVFAVRDPNTDRWVATGIVSWGIGCSRGYGFYTKVLNYVDWIKKEMEEED", "chain 2": "EPTMYGEILSPNYPQAYPSEVEKSWDIEVPEGYGIHLYFTHLDIELSENCAYDSVQIISGDTEEGRLCGQRSSNNPHSPIVEEFQVPYNKLQVIFKSDFSNEERFTGFAAYYVATDINECTDFVDVPCSHFCNNFIGGYFCSCPPEYFLHDDMKNCGVNCSGDVFTALIGEIASPNYPKPYPENSRCEYQIRLEKGFQVVVTLRREDFDVEAADSAGNCLDSLVFVAGDRQFGPYCGHGFPGPLNIETKSNALDIIFQTDLTGQKKGWKLRYHGDPMPCPKEDTPNSVWEPAKAKYVFRDVVQITCLDGFEVVEGRVGATSFYSTCQSNGKWSNSKLKCQPVDCGIPESIENGKVEDPESTLFGSVIRYTCEEPYYYMENGGGGEYHCAGNGSWVNEVLGPELPKCVPVCGVPREPFEEKQRIIGGSDADIKNFPWQVFFDNPWAGGALINEYWVLTAAHVVEGNREPTMYVGSTSVQTSRLAKSKMLTPEHVFIHPGWKLLEVPEGRTNFDNDIALVRLKDPVKMGPTVSPICLPGTSSDYNLMDGDLGLISGWGRTEKRDRAVRLKAARLPVAPLRKCKEVKVEKPTADAEAYVFTPNMICAGGEKGMDSCKGDSGGAFAVQDPNDKTKFYAAGLVSWGPQCGTYGLYTRVKNYVDWIMKTMQENSTPRED", "notes": "Complement C1r protease; Complement C1s protease; also called C1r2s2 proteases tetramer; source: recombinant, purified according to published procedures [42]; copies: 2 + 2"}},
  "conditions_in_all_cases": "both partners purified",
  "key": {"[1]": {"target": "T1, recombinant C1q mutant with an alanine substitution of LysA59, LysB61 and LysC58 (UniProt P02745 23-245; P02746 28-253; P02747 29-245, alanine substitution of LysA59 | alanine substitution of LysB61 | alanine …)", "T1 construct": "Complement C1q, A chain; Complement C1q, B chain; Complement C1q, C chain; also called rC1q ABC; source: recombinant, produced and purified as reported in Bally et al. [20]; copies: + +", "T1 sequence (P02745 other isoform, or with tags, fused parts or gaps with the stated changes, chain 1 of 3)": "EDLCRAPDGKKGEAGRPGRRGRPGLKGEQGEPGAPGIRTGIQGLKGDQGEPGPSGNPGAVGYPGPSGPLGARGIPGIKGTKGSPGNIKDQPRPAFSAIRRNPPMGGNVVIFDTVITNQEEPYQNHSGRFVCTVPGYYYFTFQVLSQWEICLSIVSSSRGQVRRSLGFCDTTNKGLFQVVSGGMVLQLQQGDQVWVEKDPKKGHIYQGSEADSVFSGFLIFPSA", "T1 sequence (P02746 other isoform, or with tags, fused parts or gaps with the stated changes, chain 2 of 3)": "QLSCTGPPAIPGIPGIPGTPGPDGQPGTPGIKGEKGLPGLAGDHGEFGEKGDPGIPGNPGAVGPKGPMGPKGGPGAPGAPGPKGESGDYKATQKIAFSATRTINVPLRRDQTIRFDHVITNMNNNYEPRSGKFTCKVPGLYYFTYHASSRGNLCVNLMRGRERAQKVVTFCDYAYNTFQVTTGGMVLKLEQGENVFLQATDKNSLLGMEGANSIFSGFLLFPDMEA", "T1 sequence (P02747 other isoform, or with tags, fused parts or gaps with the stated changes, chain 3 of 3)": "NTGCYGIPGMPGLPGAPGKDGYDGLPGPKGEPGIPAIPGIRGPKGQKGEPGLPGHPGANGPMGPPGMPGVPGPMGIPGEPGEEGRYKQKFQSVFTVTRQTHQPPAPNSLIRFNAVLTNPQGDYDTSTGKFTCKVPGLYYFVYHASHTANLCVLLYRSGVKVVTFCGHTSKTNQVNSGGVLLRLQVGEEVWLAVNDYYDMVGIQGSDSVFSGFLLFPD", "assay": "SPR; LAIR-1 Ig-like domain injected at increasing concentrations (4-128, 4-256 or 3.125-400 µM) over immobilized C1q, rC1q variants, C1qCLR_nc2 variants or C1qstem_nc2 (CM5, amine coupling); 25 °C; 50 mM Tris, 150 mM NaCl, 2 mM CaCl2, 0.05% surfactant P20, pH 7.5; KD from Req versus concentration, steady-state model"}, "[2]": {"target": "T2, recombinant wild-type C1q (UniProt P02745 23-245; P02746 28-253; P02747 29-245)", "T2 construct": "Complement C1q, A chain; Complement C1q, B chain; Complement C1q, C chain; also called rC1q WT; source: recombinant, produced and purified as reported in Bally et al. [20]; copies: + +", "T2 sequence (P02745 23-245, chain 1 of 3)": "as the sequence (P02745 other isoform, or with tags, fused parts or gaps with the stated changes, chain 1 of 3) above, with A59K counted along it", "T2 sequence (P02746 28-253, chain 2 of 3)": "as the sequence (P02746 other isoform, or with tags, fused parts or gaps with the stated changes, chain 2 of 3) above, with A61K counted along it", "T2 sequence (P02747 29-245, chain 3 of 3)": "as the sequence (P02747 other isoform, or with tags, fused parts or gaps with the stated changes, chain 3 of 3) above, with A58K counted along it", "assay": "SPR; LAIR-1 Ig-like domain injected at increasing concentrations (4-128, 4-256 or 3.125-400 µM) over immobilized C1q, rC1q variants, C1qCLR_nc2 variants or C1qstem_nc2 (CM5, amine coupling); 25 °C; 50 mM Tris, 150 mM NaCl, 2 mM CaCl2, 0.05% surfactant P20, pH 7.5; KD from Req versus concentration, steady-state model"}, "serum-derived C1q [3]": {"target": "T3, serum-derived C1q (human, UniProt P02745 23-245); P02746 28-253; P02747 29-245, hydroxyprolines in the collagen-like region (shown as O in Figure 8A) | hydroxyprolines in the collagen-like region (shown as O in Figure 8A) | hydroxyprolines in the collagen-like region (shown as O …)", "T3 construct": "Complement C1q, A chain; Complement C1q, B chain; Complement C1q, C chain; 18 polypeptide chains, six A-B-C heterotrimers, 460 kDa; also called sC1q; source: purified from human serum; copies: 6 + 6 + 6", "T3 sequence (P02745 23-245, chain 1 of 3)": "as the sequence (P02745 other isoform, or with tags, fused parts or gaps with the stated changes, chain 1 of 3) above, with A59K counted along it", "T3 sequence (P02746 28-253, chain 2 of 3)": "as the sequence (P02746 other isoform, or with tags, fused parts or gaps with the stated changes, chain 2 of 3) above, with A61K counted along it", "T3 sequence (P02747 29-245, chain 3 of 3)": "as the sequence (P02747 other isoform, or with tags, fused parts or gaps with the stated changes, chain 3 of 3) above, with A58K counted along it", "assay": "SPR; LAIR-1 Ig-like domain injected at increasing concentrations (4-128, 4-256 or 3.125-400 µM) over immobilized C1q, rC1q variants, C1qCLR_nc2 variants or C1qstem_nc2 (CM5, amine coupling); 25 °C; 50 mM Tris, 150 mM NaCl, 2 mM CaCl2, 0.05% surfactant P20, pH 7.5; KD from Req versus concentration, steady-state model"}, "serum-derived C1q [4]": {"target": "T3, serum-derived C1q", "assay": "SPR; LAIR-1 Ig-like domain (WT or mutant) injected at 10 µM over C1q or C1q fragment amine-coupled to a CM5 chip (sC1q 14,000 RU, sCLR 6000 RU, sGR 1500 RU); 25 °C; 50 mM Tris, 150 mM NaCl, 2 mM CaCl2, 0.05% surfactant P20, pH 7.5; association 180 s; mutants as percentage of the WT response at equilibrium"}, "serum-derived C1q [5]": {"target": "T3, serum-derived C1q", "assay": "SPR; sC1q (1 nM), alone or preincubated with C1r2s2 at increasing molar ratios (1-5; 15 min at 25 °C), injected over immobilized LAIR-1 Ig-like domain (330 RU); 50 mM Tris, 150 mM NaCl, 2 mM CaCl2, 0.05% surfactant P20, pH 7.5; 25 °C; avidity effects"}},
  "note": "Residue numbers refer to the chain shown, from its start.",
  "data": [
    {"binder": "B1", "values": [
      {"measurement": "Kd", "setting": "[1]", "value": 132, "unit": "µM"},
      {"measurement": "Kd", "setting": "[2]", "value": 99.5, "unit": "µM"},
      {"measurement": "Kd", "setting": "serum-derived C1q [3]", "value": 112, "unit": "µM"}
    ]},
    {"binder": "B2", "values": [
      {"measurement": "binding result", "setting": "serum-derived C1q [4]", "value": "binds"}
    ]},
    {"binder": "B3", "values": [
      {"measurement": "binding result", "setting": "serum-derived C1q [4]", "value": "binds"}
    ]},
    {"binder": "B4", "values": [
      {"measurement": "binding result", "setting": "serum-derived C1q [4]", "value": "binds"}
    ]},
    {"binder": "B5", "values": [
      {"measurement": "binding result", "setting": "serum-derived C1q [4]", "value": "binds"}
    ]},
    {"binder": "B6", "values": [
      {"measurement": "binding result", "setting": "serum-derived C1q [5]", "value": "binds"}
    ]}
  ]
}
